Among the data in the supplement of paper PMC9233669 are self-aminoacylation values, retold here.

The subject of one series is biotinyl-Val-oxazolone. As to the kind of experiment: self-aminoacylation, catalytic enhancement (BVO) (fold over background); higher = more active; k-Seq, kA / k0A0; sequences stand for … in GGGAAUGGAUCCACAUCUACGAAUUC…UUCACUGCAGACUUGACGAAGCUG
The gist of the method:
(§1)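 Mutagenized RNA pools with a 21-nt variable region (0.43 μM) were reacted with each biotinyl-aminoacyl-oxazolone at 2–1250 μM for 90 minutes at room temperature, in 50 μL HEPES/NaCl/KCl/MgCl2/CaCl2 buffer containing 5% acetonitrile at pH 6.9–7.0. RNA captured on streptavidin was quantified by triplicate qPCR and by Illumina sequencing. The fraction reacted for each sequence was fit to a pseudo-first-order model with bootstrapping, and catalytic enhancement is the median kA divided by the uncatalyzed rate, taken as the low-activity peak of a bimodal Gaussian fit.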

A further series relates to biotinyl-Ile-oxazolone. As to the kind of experiment: self-aminoacylation, catalytic enhancement (BIO) (fold over background); higher = more active; k-Seq, kA / k0A0; sequences stand for … in GGGAAUGGAUCCACAUCUACGAAUUC…UUCACUGCAGACUUGACGAAGCUG
The gist of the method: as §1

The next series has as its system biotinyl-Leu-oxazolone. As to the kind of experiment: self-aminoacylation, catalytic enhancement (BLO) (fold over background); higher = more active; k-Seq, kA / k0A0; sequences stand for … in GGGAAUGGAUCCACAUCUACGAAUUC…UUCACUGCAGACUUGACGAAGCUG
The gist of the method: as §1

The next series has as its system biotinyl-Phe-oxazolone. As to the kind of experiment: self-aminoacylation, catalytic enhancement (BFO) (fold over background); higher = more active; k-Seq, kA / k0A0; sequences stand for … in GGGAAUGGAUCCACAUCUACGAAUUC…UUCACUGCAGACUUGACGAAGCUG
The gist of the method: as §1

A further series deals with biotinyl-Trp-oxazolone. Description: self-aminoacylation, catalytic enhancement (BWO) (fold over background); higher = more active; k-Seq, kA / k0A0; sequences stand for … in GGGAAUGGAUCCACAUCUACGAAUUC…UUCACUGCAGACUUGACGAAGCUG
The gist of the method:
as §1

The next series concerns biotinyl-Met-oxazolone. As to the kind of experiment: self-aminoacylation, catalytic enhancement (BMO) (fold over background); higher = more active; k-Seq, kA / k0A0; sequences stand for … in GGGAAUGGAUCCACAUCUACGAAUUC…UUCACUGCAGACUUGACGAAGCUG
The gist of the method:
as §1

Variants at the floor of the assay were thinned out.

As to “AAGUUUGCUAAGAGUCUCAAG [Fam3.1 aminoacylation ribozyme variant]”, the self-aminoacylation worked out at 0.823 in the series with biotinyl-Val-oxazolone; 0.81 in the series on biotinyl-Ile-oxazolone; 0.775 in the series on biotinyl-Leu-oxazolone; 1.02 in the series with biotinyl-Phe-oxazolone; 1.01 with biotinyl-Trp-oxazolone; 0.651 with biotinyl-Met-oxazolone.

For “AAUCAGCUAGGUCAUCGGGUG [Fam2.2 aminoacylation ribozyme variant]”, the self-aminoacylation came to 6.64 in the series on biotinyl-Val-oxazolone; 5.2 with biotinyl-Ile-oxazolone; 5.01 with biotinyl-Leu-oxazolone; 37.5 in the series on biotinyl-Phe-oxazolone; 7.54 in the series on biotinyl-Trp-oxazolone; 4.97 with biotinyl-Met-oxazolone.

As for “AAGUCUGCUAAUAGUCGCAUG [Fam3.1 aminoacylation ribozyme variant]”, the self-aminoacylation in the series on biotinyl-Val-oxazolone was determined as 1.27; in the series on biotinyl-Ile-oxazolone it was 0.998; in the series with biotinyl-Leu-oxazolone it was 1.89; in the series on biotinyl-Phe-oxazolone it was 2.06; with biotinyl-Trp-oxazolone it was 1.91; in the series on biotinyl-Met-oxazolone, 1.72.

For the sequence “AUUGACCUUGGUCAUCGGGUG [Fam2.2 aminoacylation ribozyme variant]”, the self-aminoacylation with biotinyl-Val-oxazolone stood at 3.36; in the series with biotinyl-Ile-oxazolone, 3.38; in the series on biotinyl-Leu-oxazolone, 5.49; in the series with biotinyl-Phe-oxazolone, 32.8; in the series with biotinyl-Trp-oxazolone it was 5.82; in the series on biotinyl-Met-oxazolone, 5.19.

With “CCACACUUAAAGCAGUCGGUC [Fam1B.1 aminoacylation ribozyme variant]”, the self-aminoacylation turned out to be 0.872 in the series with biotinyl-Val-oxazolone; 1.08 in the series with biotinyl-Ile-oxazolone; 0.985 with biotinyl-Leu-oxazolone; 0.946 in the series with biotinyl-Phe-oxazolone; 0.621 in the series on biotinyl-Trp-oxazolone; 0.942 in the series on biotinyl-Met-oxazolone.

Turning to “AUUCACCUAGGUCUUCGAGUG [Fam2.2 aminoacylation ribozyme variant]”, the self-aminoacylation in the series with biotinyl-Val-oxazolone came to 2.13; in the series with biotinyl-Ile-oxazolone, 2.03; in the series on biotinyl-Leu-oxazolone, 3.65; in the series on biotinyl-Phe-oxazolone, 9.5; in the series with biotinyl-Trp-oxazolone it was 3.26; with biotinyl-Met-oxazolone, 2.99.

“AUAACCCCGGUCAUCGAGUGA [Fam2.1 aminoacylation ribozyme variant]”: the self-aminoacylation stood at 3.32 in the series on biotinyl-Val-oxazolone; 3.75 in the series on biotinyl-Ile-oxazolone; 7.29 in the series with biotinyl-Leu-oxazolone; 32.9 in the series on biotinyl-Phe-oxazolone; 6.89 in the series with biotinyl-Trp-oxazolone; 7.41 in the series on biotinyl-Met-oxazolone.

“AAUACCCUGGUCAUCGAGUGU [Fam2.1 aminoacylation ribozyme variant]”: the self-aminoacylation in the series with biotinyl-Val-oxazolone is 4.56; in the series on biotinyl-Ile-oxazolone, 3.84; in the series on biotinyl-Leu-oxazolone, 7.95; with biotinyl-Phe-oxazolone it was 20.5; in the series with biotinyl-Trp-oxazolone, 8.44; with biotinyl-Met-oxazolone, 8.79.

Regarding “AUUCACCUAGGUGUUCGGGUG [Fam2.2 aminoacylation ribozyme variant]”, the self-aminoacylation in the series on biotinyl-Val-oxazolone is 2.93; in the series on biotinyl-Ile-oxazolone it was 2.79; with biotinyl-Leu-oxazolone, 4.31; in the series with biotinyl-Phe-oxazolone, 21.7; in the series with biotinyl-Trp-oxazolone, 3.74; with biotinyl-Met-oxazolone, 3.31.

Turning to “AUUACCCAGGUCAUCGAGUGA [Fam2.1 aminoacylation ribozyme variant]”, the self-aminoacylation was determined as 3.55 in the series with biotinyl-Val-oxazolone; 3.21 with biotinyl-Ile-oxazolone; 6.08 in the series on biotinyl-Leu-oxazolone; 22.8 in the series with biotinyl-Phe-oxazolone; 6.89 in the series with biotinyl-Trp-oxazolone; 5.79 in the series on biotinyl-Met-oxazolone.

For the sequence “AAGUUUGCUAAUAGGCGCAAA [Fam3.1 aminoacylation ribozyme variant]”, the self-aminoacylation in the series on biotinyl-Val-oxazolone came to 1.1; with biotinyl-Ile-oxazolone, 1.46; with biotinyl-Leu-oxazolone, 1.74; in the series with biotinyl-Phe-oxazolone, 1.74; in the series on biotinyl-Trp-oxazolone it was 1.48; with biotinyl-Met-oxazolone it was 1.63.

For the sequence “AUUACCCUGCUCAUCGGGUGA [Fam2.1 aminoacylation ribozyme variant]”, the self-aminoacylation in the series with biotinyl-Val-oxazolone was found to be 3.34; in the series with biotinyl-Ile-oxazolone, 2.63; in the series on biotinyl-Leu-oxazolone, 5.17; in the series with biotinyl-Phe-oxazolone, 33.5; in the series with biotinyl-Trp-oxazolone, 6; with biotinyl-Met-oxazolone, 4.81.

With “CUACUUCAAACGAUCGGUCAG [Fam1A.1 aminoacylation ribozyme variant]”, the self-aminoacylation in the series on biotinyl-Val-oxazolone is 0.535; in the series on biotinyl-Ile-oxazolone, 0.621; with biotinyl-Leu-oxazolone, 0.566; in the series with biotinyl-Phe-oxazolone, 0.808; in the series on biotinyl-Trp-oxazolone it was 0.625; in the series with biotinyl-Met-oxazolone, 0.36.

As to “CUUACCCAGGUCAUCGAGUGA [Fam2.1 aminoacylation ribozyme variant]”, the self-aminoacylation was 3.6 in the series with biotinyl-Val-oxazolone; 3.04 with biotinyl-Ile-oxazolone; 4.56 in the series on biotinyl-Leu-oxazolone; 4.25 in the series with biotinyl-Phe-oxazolone; 5.54 in the series with biotinyl-Trp-oxazolone; 4.94 in the series on biotinyl-Met-oxazolone.

For the sequence “AUUACCCUGGACAUCGGGUGA [Fam2.1 aminoacylation ribozyme variant]”, the self-aminoacylation with biotinyl-Val-oxazolone was 7.46; in the series with biotinyl-Ile-oxazolone it was 7.02; in the series on biotinyl-Leu-oxazolone it was 10.2; in the series with biotinyl-Phe-oxazolone, 29.7; in the series with biotinyl-Trp-oxazolone, 7.69; with biotinyl-Met-oxazolone, 9.33.

As to “CUACUUCAAACACUCGCUCUG [Fam1A.1 aminoacylation ribozyme variant]”, the self-aminoacylation with biotinyl-Val-oxazolone turned out to be 0.818; with biotinyl-Ile-oxazolone, 0.924; in the series on biotinyl-Leu-oxazolone, 0.708; in the series on biotinyl-Phe-oxazolone it was 1.16; with biotinyl-Trp-oxazolone, 0.468; in the series on biotinyl-Met-oxazolone, 1.06.

Turning to “CUUACCCUGGUAAUCGAGUGA [Fam2.1 aminoacylation ribozyme variant]”, the self-aminoacylation turned out to be 3.18 with biotinyl-Val-oxazolone; 3.22 in the series with biotinyl-Ile-oxazolone; 7.47 with biotinyl-Leu-oxazolone; 24.3 in the series with biotinyl-Phe-oxazolone; 8.08 with biotinyl-Trp-oxazolone; 6.18 in the series on biotinyl-Met-oxazolone.

As to “AUUACCCUGCUCAUGGAGUGA [Fam2.1 aminoacylation ribozyme variant]”, the self-aminoacylation with biotinyl-Val-oxazolone stood at 4.47; in the series on biotinyl-Ile-oxazolone, 4.53; in the series on biotinyl-Leu-oxazolone, 10.1; in the series with biotinyl-Phe-oxazolone, 63.7; with biotinyl-Trp-oxazolone, 12.3; in the series on biotinyl-Met-oxazolone, 9.54.

As for “CUACUUCAAACAAUCCGUCUG [Fam1A.1 aminoacylation ribozyme variant]”, the self-aminoacylation in the series with biotinyl-Val-oxazolone was 0.806; in the series with biotinyl-Ile-oxazolone, 0.788; in the series with biotinyl-Leu-oxazolone, 0.661; with biotinyl-Phe-oxazolone it was 1.92; in the series with biotinyl-Trp-oxazolone, 1.26; in the series on biotinyl-Met-oxazolone it was 0.673.

As to “AUUACCCUUGUAAUCGAGUGA [Fam2.1 aminoacylation ribozyme variant]”, the self-aminoacylation worked out at 6.66 in the series on biotinyl-Val-oxazolone; 6.93 with biotinyl-Ile-oxazolone; 16.3 in the series with biotinyl-Leu-oxazolone; 127 in the series with biotinyl-Phe-oxazolone; 21.1 with biotinyl-Trp-oxazolone; 16.4 with biotinyl-Met-oxazolone.

As for “CAACUCCAAACAAUCGGUCUG [Fam1A.1 aminoacylation ribozyme variant]”, the self-aminoacylation with biotinyl-Val-oxazolone is 1.14; with biotinyl-Ile-oxazolone, 1.31; with biotinyl-Leu-oxazolone it was 1.1; in the series with biotinyl-Phe-oxazolone, 6.95; in the series with biotinyl-Trp-oxazolone it was 3.05; with biotinyl-Met-oxazolone, 1.36.
